Assay results published in publication PMC6171237, “UBN1/2 of HIRA complex is responsible for recognition and deposition of H3.3 at cis-regulatory elements of genes in mouse ES cells” (BMC Biology, 2018).

B1: GST-UBN1 (1–213) (domain or fragment)
chain: MSEPHRVQFTSLPGSLNPAFLKKSRKEEAGAGEQHQDCEPAAAAVRITLTLFEPDHKRCPEFFYPELVKNIRGKVKGLQPGDKKKDLSDPFNDEEKERHKVEALARKFEEKYGGKKRRKDRIQDLIDMGYGYDESDSFIDNSEAYDELVPASLTTKYGGFYINSGTLQFRQASESEDDFIKEKKKKSPKKRKLKEGGEKIKKKKKDDTYDKEK
notes: source: E. coli, purified by GST tag
B2: GST-UBN2 (109–291) (domain or fragment)
chain: PRESASRAEQPPRPPRETVRLELVLKDPTDESCVEFSYPELLLCGEQRKKLIHTEDPFNDEHQERQEVEMLAKKFEMKYGGKPRKHRKDRLQDLIDIGFGYDETDPFIDNSEAYDELVPASLTTKYGGFYINTGTLQFRQASDTEEDDITDNQKHKPPKVPKIKEDDIEMKKRKRKEEGEKEK
notes: UBN2, human, residues 109-291, contains the HRD domain; also called UBN2 (aa109-291); GST-UBN2-(aa109-291); source: E. coli, purified by GST tag

Molecular target: T1, (H3.3-H4)2 tetramers (UniProt P84243 1-136; P62805 1-103)
T1 construct: Histone H3.3; Histone H4; also called H3.3-H4 tetramer; copies: 2 + 2
Test: pull-down; GST fusion proteins immobilized on Glutathione Sepharose 4 Fast Flow, histone tetramers added in 20 mM HEPES-HCl pH 7.9, 500 mM NaCl, 1 mM EDTA, 5 mM 2-mercaptoethanol, 0.1% Nonidet P-40, overnight at 4 °C; Coomassie staining
Conditions: both partners purified

Binder	binding result
B1	binds
B2	binds
